Test results from article PMC10786891, “Massively parallel profiling of RNA-targeting CRISPR-Cas13d”.

T1: EsCas13d, nuclease-dead (Eubacterium siraeum, UniProt B0MS50, R295A;H300A;R849A;H854A)
T1 sequence: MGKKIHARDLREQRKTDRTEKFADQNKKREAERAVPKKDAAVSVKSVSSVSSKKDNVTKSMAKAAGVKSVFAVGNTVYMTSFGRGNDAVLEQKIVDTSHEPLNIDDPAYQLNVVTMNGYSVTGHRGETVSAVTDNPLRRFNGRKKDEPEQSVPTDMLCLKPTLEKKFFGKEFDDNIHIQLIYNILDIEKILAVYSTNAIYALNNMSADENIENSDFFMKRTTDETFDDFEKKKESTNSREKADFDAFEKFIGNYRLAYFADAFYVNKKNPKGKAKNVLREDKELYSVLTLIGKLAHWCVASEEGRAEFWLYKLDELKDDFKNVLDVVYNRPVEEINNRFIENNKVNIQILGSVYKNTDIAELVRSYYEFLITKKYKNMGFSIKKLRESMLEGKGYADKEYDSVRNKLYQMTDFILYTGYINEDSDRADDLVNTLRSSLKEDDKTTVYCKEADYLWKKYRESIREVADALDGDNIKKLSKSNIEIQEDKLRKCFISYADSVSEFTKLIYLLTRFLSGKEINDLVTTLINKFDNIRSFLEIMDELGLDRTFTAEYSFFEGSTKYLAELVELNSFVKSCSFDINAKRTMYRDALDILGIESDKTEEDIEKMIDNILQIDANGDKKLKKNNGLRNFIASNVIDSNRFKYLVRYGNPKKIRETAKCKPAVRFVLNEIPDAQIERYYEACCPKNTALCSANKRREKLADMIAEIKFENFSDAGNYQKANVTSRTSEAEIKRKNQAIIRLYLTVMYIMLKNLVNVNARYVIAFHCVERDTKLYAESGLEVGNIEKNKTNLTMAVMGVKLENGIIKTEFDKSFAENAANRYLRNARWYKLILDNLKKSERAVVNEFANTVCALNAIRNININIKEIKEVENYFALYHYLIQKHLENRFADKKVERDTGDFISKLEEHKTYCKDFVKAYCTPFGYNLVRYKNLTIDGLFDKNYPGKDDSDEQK

B1: target 1 insU 3' of 20,insC 3' of 10 (mixed)
RNA 1: CACCCGUGCAAAAAUGCAGGGGUCUAAAACUGAGCGGAUAACCUCUCUAUGG
RNA 2: GGGAAUGGAUCCACAUCUACGAAUUCGUACCAUUAGAGAGGUUCAUCCGCUCACCGAGAUCGGAAGAGCACACGU
B2: target 1 insG 3' of 16,insC 3' of 3 (mixed)
RNA 1: CACCCGUGCAAAAAUGCAGGGGUCUAAAACUGAGCGGAUAACCUCUCUAUGG
RNA 2: GGGAAUGGAUCCACAUCUACGAAUUCGUACCAUAGAGGAGGUUAUCCGCUCCACCGAGAUCGGAAGAGCACACGU
B3: target 1 G15A,G17A (mixed)
RNA 1: CACCCGUGCAAAAAUGCAGGGGUCUAAAACUGAGCGGAUAACCUCUCUAUGG
RNA 2: GGGAAUGGAUCCACAUCUACGAAUUCGUACCAUAAAAAGGUUAUCCGCUCACCGAGAUCGGAAGAGCACACGU
B4: target 1 insA 3' of 17,insC 3' of 1 (mixed)
RNA 1: CACCCGUGCAAAAAUGCAGGGGUCUAAAACUGAGCGGAUAACCUCUCUAUGG
RNA 2: GGGAAUGGAUCCACAUCUACGAAUUCGUACCAUAGAAGAGGUUAUCCGCUCACCCGAGAUCGGAAGAGCACACGU
B5: target 1 C7A,A14G (mixed)
RNA 1: CACCCGUGCAAAAAUGCAGGGGUCUAAAACUGAGCGGAUAACCUCUCUAUGG
RNA 2: GGGAAUGGAUCCACAUCUACGAAUUCGUACCAUAGAGGGGUUAUACGCUCACCGAGAUCGGAAGAGCACACGU
B6: target 1 insU 3' of 20,insU 3' of 4 (mixed)
RNA 1: CACCCGUGCAAAAAUGCAGGGGUCUAAAACUGAGCGGAUAACCUCUCUAUGG
RNA 2: GGGAAUGGAUCCACAUCUACGAAUUCGUACCAUUAGAGAGGUUAUCCGCUUCACCGAGAUCGGAAGAGCACACGU
B7: target 1 U10G,G13A (mixed)
RNA 1: CACCCGUGCAAAAAUGCAGGGGUCUAAAACUGAGCGGAUAACCUCUCUAUGG
RNA 2: GGGAAUGGAUCCACAUCUACGAAUUCGUACCAUAGAGAAGUGAUCCGCUCACCGAGAUCGGAAGAGCACACGU
B8: target 1 C4G,C7A (mixed)
RNA 1: CACCCGUGCAAAAAUGCAGGGGUCUAAAACUGAGCGGAUAACCUCUCUAUGG
RNA 2: GGGAAUGGAUCCACAUCUACGAAUUCGUACCAUAGAGAGGUUAUACGGUCACCGAGAUCGGAAGAGCACACGU
B9: target 1 C2A,U3A (mixed)
RNA 1: CACCCGUGCAAAAAUGCAGGGGUCUAAAACUGAGCGGAUAACCUCUCUAUGG
RNA 2: GGGAAUGGAUCCACAUCUACGAAUUCGUACCAUAGAGAGGUUAUCCGCAAACCGAGAUCGGAAGAGCACACGU
B10: target 1 insU 3' of 20,insU 3' of 18 (mixed)
RNA 1: CACCCGUGCAAAAAUGCAGGGGUCUAAAACUGAGCGGAUAACCUCUCUAUGG
RNA 2: GGGAAUGGAUCCACAUCUACGAAUUCGUACCAUUAUGAGAGGUUAUCCGCUCACCGAGAUCGGAAGAGCACACGU
B11: target 1 insA 3' of 15,insC 3' of 3 (mixed)
RNA 1: CACCCGUGCAAAAAUGCAGGGGUCUAAAACUGAGCGGAUAACCUCUCUAUGG
RNA 2: GGGAAUGGAUCCACAUCUACGAAUUCGUACCAUAGAGAAGGUUAUCCGCUCCACCGAGAUCGGAAGAGCACACGU
B12: target 1 insG 3' of 20,insA 3' of 11 (mixed)
RNA 1: CACCCGUGCAAAAAUGCAGGGGUCUAAAACUGAGCGGAUAACCUCUCUAUGG
RNA 2: GGGAAUGGAUCCACAUCUACGAAUUCGUACCAGUAGAGAGGUAUAUCCGCUCACCGAGAUCGGAAGAGCACACGU
B13: target 1 insU 3' of 22,insG 3' of 2 (mixed)
RNA 1: CACCCGUGCAAAAAUGCAGGGGUCUAAAACUGAGCGGAUAACCUCUCUAUGG
RNA 2: GGGAAUGGAUCCACAUCUACGAAUUCGUACUCAUAGAGAGGUUAUCCGCUCGACCGAGAUCGGAAGAGCACACGU
B14: target 1 C4U,C7G (mixed)
RNA 1: CACCCGUGCAAAAAUGCAGGGGUCUAAAACUGAGCGGAUAACCUCUCUAUGG
RNA 2: GGGAAUGGAUCCACAUCUACGAAUUCGUACCAUAGAGAGGUUAUGCGUUCACCGAGAUCGGAAGAGCACACGU
B15: target 1 insA 3' of 17,insA 3' of 2 (mixed)
RNA 1: CACCCGUGCAAAAAUGCAGGGGUCUAAAACUGAGCGGAUAACCUCUCUAUGG
RNA 2: GGGAAUGGAUCCACAUCUACGAAUUCGUACCAUAGAAGAGGUUAUCCGCUCAACCGAGAUCGGAAGAGCACACGU
B16: target 1 insG 3' of 7,insU 3' of 1 (mixed)
RNA 1: CACCCGUGCAAAAAUGCAGGGGUCUAAAACUGAGCGGAUAACCUCUCUAUGG
RNA 2: GGGAAUGGAUCCACAUCUACGAAUUCGUACCAUAGAGAGGUUAUCGCGCUCAUCCGAGAUCGGAAGAGCACACGU
B17: target 1 C6U,G15C (mixed)
RNA 1: CACCCGUGCAAAAAUGCAGGGGUCUAAAACUGAGCGGAUAACCUCUCUAUGG
RNA 2: GGGAAUGGAUCCACAUCUACGAAUUCGUACCAUAGACAGGUUAUCUGCUCACCGAGAUCGGAAGAGCACACGU
B18: target 1 insU 3' of 17,insC 3' of 10 (mixed)
RNA 1: CACCCGUGCAAAAAUGCAGGGGUCUAAAACUGAGCGGAUAACCUCUCUAUGG
RNA 2: GGGAAUGGAUCCACAUCUACGAAUUCGUACCAUAGUAGAGGUUCAUCCGCUCACCGAGAUCGGAAGAGCACACGU
B19: target 1 insU 3' of 21,insA 3' of 19 (mixed)
RNA 1: CACCCGUGCAAAAAUGCAGGGGUCUAAAACUGAGCGGAUAACCUCUCUAUGG
RNA 2: GGGAAUGGAUCCACAUCUACGAAUUCGUACCUAUAAGAGAGGUUAUCCGCUCACCGAGAUCGGAAGAGCACACGU
B20: target 1 A9G,C21A (mixed)
RNA 1: CACCCGUGCAAAAAUGCAGGGGUCUAAAACUGAGCGGAUAACCUCUCUAUGG
RNA 2: GGGAAUGGAUCCACAUCUACGAAUUCGUACAAUAGAGAGGUUGUCCGCUCACCGAGAUCGGAAGAGCACACGU
B21: target 1 insC 3' of 9,insU 3' of 4 (mixed)
RNA 1: CACCCGUGCAAAAAUGCAGGGGUCUAAAACUGAGCGGAUAACCUCUCUAUGG
RNA 2: GGGAAUGGAUCCACAUCUACGAAUUCGUACCAUAGAGAGGUUACUCCGCUUCACCGAGAUCGGAAGAGCACACGU
B22: target 1 A9U,G17A (mixed)
RNA 1: CACCCGUGCAAAAAUGCAGGGGUCUAAAACUGAGCGGAUAACCUCUCUAUGG
RNA 2: GGGAAUGGAUCCACAUCUACGAAUUCGUACCAUAAAGAGGUUUUCCGCUCACCGAGAUCGGAAGAGCACACGU
B23: target 1 U3C,G5C (mixed)
RNA 1: CACCCGUGCAAAAAUGCAGGGGUCUAAAACUGAGCGGAUAACCUCUCUAUGG
RNA 2: GGGAAUGGAUCCACAUCUACGAAUUCGUACCAUAGAGAGGUUAUCCCCCCACCGAGAUCGGAAGAGCACACGU
B24: target 1 A1U,U19A (mixed)
RNA 1: CACCCGUGCAAAAAUGCAGGGGUCUAAAACUGAGCGGAUAACCUCUCUAUGG
RNA 2: GGGAAUGGAUCCACAUCUACGAAUUCGUACCAAAGAGAGGUUAUCCGCUCUCCGAGAUCGGAAGAGCACACGU
B25: target 1 C4G,A18C (mixed)
RNA 1: CACCCGUGCAAAAAUGCAGGGGUCUAAAACUGAGCGGAUAACCUCUCUAUGG
RNA 2: GGGAAUGGAUCCACAUCUACGAAUUCGUACCAUCGAGAGGUUAUCCGGUCACCGAGAUCGGAAGAGCACACGU
B26: target 1 U11C,A14C (mixed)
RNA 1: CACCCGUGCAAAAAUGCAGGGGUCUAAAACUGAGCGGAUAACCUCUCUAUGG
RNA 2: GGGAAUGGAUCCACAUCUACGAAUUCGUACCAUAGAGCGGCUAUCCGCUCACCGAGAUCGGAAGAGCACACGU
B27: target 1 insA 3' of 17,insG 3' of 1 (mixed)
RNA 1: CACCCGUGCAAAAAUGCAGGGGUCUAAAACUGAGCGGAUAACCUCUCUAUGG
RNA 2: GGGAAUGGAUCCACAUCUACGAAUUCGUACCAUAGAAGAGGUUAUCCGCUCAGCCGAGAUCGGAAGAGCACACGU
B28: target 1 insA 3' of 17,insU 3' of 1 (mixed)
RNA 1: CACCCGUGCAAAAAUGCAGGGGUCUAAAACUGAGCGGAUAACCUCUCUAUGG
RNA 2: GGGAAUGGAUCCACAUCUACGAAUUCGUACCAUAGAAGAGGUUAUCCGCUCAUCCGAGAUCGGAAGAGCACACGU

These binders were tested against T1, EsCas13d, nuclease-dead (assay: crRNA (strand 1, pre-loaded); Mg2+; 40 mM Tris-HCl pH 7.5, 150 mM NaCl, 6 mM MgCl2, 1 mM DTT, 0.1% Tween-20, 0.2 mg/ml BSA; 25 C; 10 min per concentration, then washed). Conditions: tags: His6-TwinStrep-SUMO cleaved; N-terminal SNAP kept (SNAP-Surface 488); label: 3' end held by stalled T7 RNA polymerase.
For B1, the Kd was 30 ± 4 nM.
With B2 the Kd was 12.4 ± 0.6 nM.
With B3 the Kd was 80 ± 15 nM.
B4 showed a Kd of 12.2 ± 1.2 nM.
Work on B5 yielded a Kd of 15.6 ± 0.6 nM.
With B6 the Kd was 10.6 ± 1.2 nM.
B7 showed a Kd of 42 ± 15 nM.
Work on B8 yielded a Kd of 7.1 ± 0.4 nM.
B9 was tested, and the Kd was 10 ± 0.8 nM.
B10 gave a Kd of 33 ± 5 nM.
Work on B11 yielded a Kd of 10.1 ± 1.3 nM.
With B12 the Kd was 75 ± 33 nM.
In the case of B13, the Kd is reported as 29.1 ± 1.8 nM.
For B14, the Kd was 10.4 ± 0.4 nM.
B15 showed a Kd of 13.8 ± 0.7 nM.
With B16 the Kd was 7.3 ± 0.5 nM.
In the case of B17, the Kd is reported as 62 ± 7 nM.
In the case of B18, the Kd is reported as roughly 50 nM.
Work on B19 yielded a Kd of 55 ± 10 nM.
Work on B20 yielded a Kd of 36 ± 4 nM.
With B21 the Kd was 9.2 ± 0.6 nM.
B22 showed a Kd of 41 ± 5 nM.
B23 showed a Kd of 6.3 ± 0.7 nM.
B24 gave a Kd of 29 ± 4 nM.
For B25, the Kd was 44 ± 7 nM.
B26 gave a Kd of 86 ± 22 nM.
B27 gave a Kd of 17.6 ± 1.7 nM.
B28 was tested, and the Kd was 18.5 ± 1.9 nM.
